{"source": "paper PMC10730688", "target": "phosphonull human rod opsin 6A mutant (human) (UniProt P08100)"}
{"substance": "human visual arrestin (rod arrestin, arrestin-1), wildtype (from UniProt P10523 1-405) (natural protein)", "values": [{"measurement": "Toff in the BRET G-protein activation assay, untethered co-expression of Rod6A and ArrWT (comparison for the Rod6A-ArrWT fusions)", "value": 1240, "unit": "s"}]}
